We go through four molecules from patent US20250115680A1 (PROFOUNDBIO US, published 2025).

The target of assay [1] is T1, human PTK7 extra-cellular domain (ECD) linked to His tag (human, UniProt Q13308 31-704).
T1 construct: extracellular domain; also called hPTK7-his; human PTK7-his protein; not shown: His tag
T1 sequence (looked up): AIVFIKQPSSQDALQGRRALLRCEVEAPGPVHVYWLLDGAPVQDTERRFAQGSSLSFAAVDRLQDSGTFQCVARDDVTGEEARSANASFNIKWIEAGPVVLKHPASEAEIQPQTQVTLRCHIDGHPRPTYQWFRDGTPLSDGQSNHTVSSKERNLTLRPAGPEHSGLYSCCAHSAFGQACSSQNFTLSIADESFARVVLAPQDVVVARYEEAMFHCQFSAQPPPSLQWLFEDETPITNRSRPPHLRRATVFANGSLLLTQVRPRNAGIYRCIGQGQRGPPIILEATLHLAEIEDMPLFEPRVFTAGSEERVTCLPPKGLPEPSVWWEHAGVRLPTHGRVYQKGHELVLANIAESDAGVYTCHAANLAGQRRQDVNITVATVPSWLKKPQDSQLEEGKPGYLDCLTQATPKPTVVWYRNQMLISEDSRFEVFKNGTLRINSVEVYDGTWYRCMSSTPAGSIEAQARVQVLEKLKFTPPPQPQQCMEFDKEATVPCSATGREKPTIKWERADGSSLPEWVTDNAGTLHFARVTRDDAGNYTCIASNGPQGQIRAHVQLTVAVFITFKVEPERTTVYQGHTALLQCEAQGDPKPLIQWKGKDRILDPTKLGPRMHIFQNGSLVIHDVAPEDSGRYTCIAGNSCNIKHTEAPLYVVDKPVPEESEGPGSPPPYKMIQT
Description: ELISA screening of hybridoma supernatants on human PTK7-his. As to the method:
The cells were resuspended with an appropriate amount of electroporation buffer to ensure the cell concentration of about 2×10⁷ cells/mL. The cell suspension was added to a 9 mL electroporation tank for fusion. After fusion, the cell suspension was transferred to 20 mL RPMI 1640 complete medium containing 20% FBS and then left at room temperature for 20 min. The fused cells were resuspended with RPMI 1640 medium containing 1×HAT, 1×BIOMYC3, and 20% FBS. The cell suspension was added to several 96-well cell culture plates at 100 ul/well to ensure that the cell volume per well was about 5×10⁴ cells/well, and the plates were placed in a 37° C. cell incubator. After 7 days, additional 100 μL of RPMI 1640 complete medium containing 20% FBS, 1×HAT, and 1×BIOMYC-3 was added to each well. After 10 days, the cell culture supernatants from hybridoma parent clones were collected and used for screening by binding to human and cynomolgus monkey PTK7-his protein by ELISA.
(In general: ELISA stands for enzyme-linked immunosorbent assay.)

Assay [2] has as its target T2, human PTK7 on the surface of PTK7-expressing tumor cell lines (human, UniProt Q13308 31-1070).
T2 construct: whole, on cells
T2 sequence (looked up): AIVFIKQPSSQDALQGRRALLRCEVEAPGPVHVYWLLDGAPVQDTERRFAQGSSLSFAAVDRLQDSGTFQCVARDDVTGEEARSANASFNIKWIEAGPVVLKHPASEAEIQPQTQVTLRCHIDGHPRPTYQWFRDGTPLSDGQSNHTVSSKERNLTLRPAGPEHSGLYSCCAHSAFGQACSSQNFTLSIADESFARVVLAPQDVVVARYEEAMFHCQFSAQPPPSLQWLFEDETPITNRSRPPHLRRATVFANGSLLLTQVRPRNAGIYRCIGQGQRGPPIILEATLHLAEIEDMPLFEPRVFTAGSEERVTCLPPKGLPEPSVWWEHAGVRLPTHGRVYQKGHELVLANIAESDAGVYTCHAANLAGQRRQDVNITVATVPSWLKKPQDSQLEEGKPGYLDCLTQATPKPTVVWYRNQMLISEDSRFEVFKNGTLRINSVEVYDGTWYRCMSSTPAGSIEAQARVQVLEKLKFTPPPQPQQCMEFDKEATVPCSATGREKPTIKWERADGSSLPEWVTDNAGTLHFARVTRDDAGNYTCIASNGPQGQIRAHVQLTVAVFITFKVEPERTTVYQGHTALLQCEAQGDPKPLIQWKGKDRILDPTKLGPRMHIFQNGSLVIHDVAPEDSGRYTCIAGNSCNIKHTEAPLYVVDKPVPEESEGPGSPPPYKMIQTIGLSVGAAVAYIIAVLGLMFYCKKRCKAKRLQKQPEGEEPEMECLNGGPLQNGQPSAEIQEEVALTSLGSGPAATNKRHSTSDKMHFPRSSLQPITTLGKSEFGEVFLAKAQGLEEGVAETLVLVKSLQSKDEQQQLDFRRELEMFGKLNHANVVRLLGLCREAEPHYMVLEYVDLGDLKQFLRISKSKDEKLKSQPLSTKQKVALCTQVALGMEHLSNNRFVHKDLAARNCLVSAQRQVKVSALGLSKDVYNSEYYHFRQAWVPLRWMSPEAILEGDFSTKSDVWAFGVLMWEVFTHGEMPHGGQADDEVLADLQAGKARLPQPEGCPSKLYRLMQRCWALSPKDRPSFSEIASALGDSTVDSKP
The experiment in a line: flow cytometry on MDA-MB-468 cells. (A flow cytometer gives signals particle by particle.)

The target of assay [3] is T2, human PTK7 on the surface of …. Description: cell-based or functional assay.

B1: murine antibody m13C4 (antibody, V domains shown)
VH: EVKLVESGGGLVKPGGSLKLSCAASGFAFSTYDMFWFRQTPEKRLEWVATISSGGGYTYYPGSVKGRFTISRDNARNTLYLQMSSLRSEDTALYYCVRPLLRDSYFYFDVWGAGTTVTVSS
VL: DIVMTQSPAIMSTSPGEKVTMTCRASSSVSSSYLHWYQQKSGASPKLWIFRTSNLASGVPARFSGSGSGTSYSLTISSVEAEDAATYYCQQYSGYPLTFGAGTKLELK
notes: Mouse hybridoma clone, tested as culture supernatant
As for B1, the binding result in assay [1] and in assay [2] was “binds” in each case.

B2: PRO1107 (2C8-LD343 (8)) (other)
VH: QIQLVQSGAEVKKPGASVKVSCKASGYTFTTYGMSWVRQAPGQGLEWMGWINTHSGVPTYVDEFKGRVTMTLDTSTSTAYMELSSLRSEDTAVYYCARSPFDYGSRGAWFVYWGQGTTVTVSS
VL: DVVMTQSPDSLAVSLGERATINCRSSQSIVHNSGDTYLEWYQQKPGQPPKLLIYKVSNRFPGVPDRFSGSGSGTDFTLTISSLQAEDLAVYYCFQGSHVPWTFGGGTKVEIK
modifications: drug-linker LD343 (MMAE payload) coupled to cysteines of the TCEP-reduced antibody; DAR 7.5 by LC-MS; the chain carrying each drug is not stated
In the case of B2, in assay [3], the “IC50 of in vitro cytotoxicity (Cell-titre Glo, 96 h), Detroit 562 cells” value came to 8.2 nM; the “IC50 of in vitro cytotoxicity (Cell-titre Glo, 96 h), MDA-MB-468 cells” value was determined as 0.00014 nM; the “IC50 of in vitro cytotoxicity (Cell-titre Glo, 96 h), OVCAR-3 cells” value was 0.0011 nM; the “IC50 of in vitro cytotoxicity (Cell-titre Glo, 96 h), PA-1 cells” value is 0.008 nM. Also, in assay [3], the “IC50 of in vitro cytotoxicity (Cell-titre Glo, 96 h), SNG-M cells” value came out at 0.02 nM and the “IC50 of in vitro cytotoxicity (Cell-titre Glo, 96 h), SW780 cells” value came out at 27.4 nM.

B3: murine antibody m2C5 (antibody, V domains shown)
VH: EVQLLSSGPELVTPGASVKISCKASGYTFTDYYINWLKQSHGKSLEWIGDINPNSGGPVYNQKFMAKATLTVDKTSNTAYMELRSLTSEDSAVYYCARGDYYGSNYNYWGQGTTLTVSS
VL: DILLTQSPAILSVSPGERVSFSCRASQNIGTSIHWYQQRTNGSPRLLIKFASESISGIPSRFSGSGSGTDFALTINSVESEDIADYYCQQSNNWPYTFGGGTKLEIK
notes: as for B1
Consider B3, for which the binding result in assay [1] and in assay [2] was “binds” each time.

B4: murine antibody m2C8 (antibody, V domains shown)
VH: QIQLVQSGPELKKPGETVKISCKASGYTFTTYGMSWVKQAPGKGLKWMGWINTHSGVPTYVDEFKGRSAFSLETSASTAYLQINNLKNEDTATYFCARSPFDYGSRGAWFVYWGQGTLVTVSS
VL: DVLMTQTPLSLPVSLGDQASISCRSSQSIVHNNGDTYLEWYLQKPGQSPKLLIYKVSNRFPGVPDRFSGSGSGTDFTLKISRVEAEDLGLYYCFQGSHVPWTFGGGTKLEIK
notes: as for B1
B4: the binding result in assay [1] and in assay [2] was “binds” each time.
